In patent publication US20190282654A1:
Bridge positions count the residues as written; N and C are the ends. Square brackets hold non-standard residues; d marks the D form. Primed or numbered codes have the meaning given here. Ends that are not written are not given here. 2Nal = N[C@@H](Cc1ccc2ccccc2c1)C(=O)O; BMB″ = not defined here

Legend:
[1] = molecular target: NEMO (endogenous, in NF-κB reporter (Luc)-HEK293 cells), Q9Y6K9; assay: cell-based or functional assay
GST-NEMO(1-196), Q9Y6K9 = molecular target: T1, GST-NEMO(1-196), Q9Y6K9; assay: HTRF competition: GST-NEMO (30 nM) + biotin-IKKβKK/RR(701-745) (50 nM), 5 mM TCEP
T1 chain: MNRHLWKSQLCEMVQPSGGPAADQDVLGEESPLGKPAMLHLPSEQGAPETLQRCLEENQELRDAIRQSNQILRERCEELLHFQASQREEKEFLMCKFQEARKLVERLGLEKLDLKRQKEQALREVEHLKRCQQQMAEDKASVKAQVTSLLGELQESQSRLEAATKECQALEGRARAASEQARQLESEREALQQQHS

TNFα-induced luciferase activity, NF-κB reporter (Luc)-HEK293 cells, IC50 [1]: 20 µM
IC50 (GST-NEMO(1-196), Q9Y6K9): 3.5 µM
B1: bicyclic peptide 4 (peptide)
peptide: RRRR[2Nal]FCALDWSWLQC
modifications: linker 7-16 via BMB″ (inferred); not fully specified (bridges); reading uncertain
